Assay results published in article PMC12363188 (2025).

What was measured:
[1] = molecular target: T1, SARS-CoV-2 S-RBD (residues 330 to 530) (SARS-CoV-2, UniProt P0DTC2 330-530); assay: SPR
[2] = molecular target: T1, SARS-CoV-2 S-RBD (residues 330 to 530); assay: SPR; remark: listed apart in the source

B1: Rhinolophus pusillus bat ACE2 ectodomain (residues 18 to 615) (domain or fragment)
chain: QSITEDKAKKFLNDFNSEAEDLSYQSSLASWDYNTNISDENVQKMDEAGAKWSAFYEEQSKIAKNYPLEEIQTDIVKRQLQILQQSGSPVLSEDKSKRLNSILNAMSTIYSTGKVCKPNNPQECLLLEPGLDNIMGTSKDYHERLWAWEGWRAEVGKQLRPLYEEYVVLKNEMARGYHYEDYGDYWRRDYETEESSGPGYSRDQLMKDVDRIFTEIKPLYEHLHAYVRAKLMDTYPLHISPTGCLPAHLLGDMWGRFWTNLYPLTVPFGQKPNIDVTDEMVKQGWDANRIFKEAEKFFVSVGLPNMTEGFWNNSMLTEPGDGRKVVCHPTAWDLGKGDFRIKMCTKVTMEDFLTAHHEMGHIQYDMAYASQPYLLRNGANEGFHEAVGEVMSLSVATPKHLKTMGLLSPDFREDDETEINFLLKQALNIVGTLPFTYMLEKWRWMVFKGEIPKEEWMKKWWEMKREIVGVVEPVPHDETYCDPASLFHVANDYSFIRYYTRTIFEFQFHEALCRIAQHNGPLHKCDISNSTDAGKKLHQMLSVGKSQAWTKTLEDIVGSRNMDVGPLLRYFKPLYTWLQEQSRKSYVGWNTDWSPYSD
With B1 the koff [1] was 0.00152 s⁻¹ and the Kd [2] was 45.3 nM.
